Source: PMC8406295, “Highly Basic Clusters in the Herpes Simplex Virus 1 Nuclear Egress Complex Drive Membrane Budding by Inducing Lipid Ordering” (mBio, 2021)
* marks the point of attachment. MTSL = spin label, CC1(C)C=C(CS*)C(C)(C)N1[O]

Molecular target: T1, UL34^(174–194) peptide, unlabelled (herpes simplex virus 1 (HSV-1), UniProt P10218 174-194, N-terminally acetylated; C-terminally amidated)
T1 construct: also called UL34 MPR peptide; source: synthetic peptide, bought: Peptide 2.0
T1 peptide: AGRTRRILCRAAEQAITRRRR
Experiment: cross-linking; SM(PEG)6 at 50-fold molar excess, 30 min at room temperature in PBS, with 1 mM POPC/POPS/POPA 3:1:1 SUVs; 50 μM peptide, or 25 μM each in mixtures; 16% Tris-tricine SDS-PAGE, Coomassie
Details: both partners purified

Binder | binding result
Ac-RKSLPPHARK-NH2 (also called UL31 mini-MPR peptide; source: synthetic peptide, bought: Peptide 2.0) [UL31^(41–50) peptide] | binds
Ac-RRSRSSAAGGTLGVVRRASRK-NH2 (source: synthetic peptide, bought: Peptide 2.0) [UL31^(22–42) peptide] | binds

Molecular target: T2, UL34^(174–194) peptide, spin-labelled at C182 (herpes simplex virus 1 (HSV-1), UniProt P10218 174-194, N-terminally acetylated; C-terminally amidated; MTSL spin label on the native cysteine C182)
T2 construct: also called UL34 MPR peptide; C182_(34); source: synthetic peptide, bought: Peptide 2.0
T2 peptide: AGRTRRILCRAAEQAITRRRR
Experiment: DEER (double electron-electron resonance) spectroscopy; MTSL spin-labelled peptides, approximately 50 μM peptide or 1:1 peptide mixture with POPC/POPS/POPA 3:1:1 SUVs, 1:200 P/L ratio, incubated 10 min at 25°C, frozen, measured at 60 K
Details: both partners purified

Binder | binding result
Ac-RKSLPPHARKC(MTSL)-NH2 (SMILES CC(=O)N[C@@H](CCCNC(=N)N)C(=O)N[C@@H](CCCCN)C(=O)N[C@@H](CO)C(=O)N[C@@H](CC(C)C)C(=O)N1CCC[C@H]1C(=O)N1CCC[C@H]1C(=O)N[C@@H](Cc1c[nH]cn1)C(=O)N[C@@H](C)C(=O)N[C@@H](CCCNC(=N)N)C(=O)N[C@@H](CCCCN)C(=O)N[C@@H](CSSCC1=CC(C)(C)N([O])C1(C)C)C(N)=O, also called mini-MPR with C-terminal cysteine; C51_(31); source: synthetic peptide, bought: Peptide 2.0) [UL31^(41–C51) peptide, spin-labelled] | binds
Ac-RRSRSSAAGGTLGVVRRASRKC(MTSL)-NH2 (also called C43_(31); source: synthetic peptide, bought: Peptide 2.0) [UL31^(22–C43) peptide, spin-labelled] | binds
Ac-C(MTSL)RKSLPPHARK-NH2 (SMILES CC(=O)N[C@@H](CSSCC1=CC(C)(C)N([O])C1(C)C)C(=O)N[C@@H](CCCNC(=N)N)C(=O)N[C@@H](CCCCN)C(=O)N[C@@H](CO)C(=O)N[C@@H](CC(C)C)C(=O)N1CCC[C@H]1C(=O)N1CCC[C@H]1C(=O)N[C@@H](Cc1c[nH]cn1)C(=O)N[C@@H](C)C(=O)N[C@@H](CCCNC(=N)N)C(=O)N[C@@H](CCCCN)C(N)=O, also called mini-MPR with N-terminal cysteine; C40_(31); source: synthetic peptide, bought: Peptide 2.0) [UL31^(C40–50) peptide, spin-labelled] | binds
Ac-C(MTSL)RRSRSSAAGGTLGVVRRASRK-NH2 (also called C21_(31); source: synthetic peptide, bought: Peptide 2.0) [UL31^(C21–42) peptide, spin-labelled] | binds
